Experiments:
NT-proBNP = NT-proBNP (UniProt P16860 27-102); assay: graphene field-effect transistor (GFET) aptasensor; LOD 0.01 pg/mL, range 0.1-10^4 pg/mL; Langmuir KD calculated but value not in material; PBS (137 mM NaCl, 2.7 mM KCl, 10 mM phosphate) used for immobilization and blank; sensing buffer dilution, pH and temperature not given in material; aptamer on; details: protein: commercial
[1] = molecular target: cTnI (cardiac troponin I) (UniProt P19429 2-210); assay: graphene field-effect transistor (GFET) aptasensor; cTnI 3.5 ng/mL; no significant response; PBS (137 mM NaCl, 2.7 mM KCl, 10 mM phosphate) used for immobilization and blank; sensing buffer dilution, pH and temperature not given in material; aptamer on; details: protein: commercial
Sequence of cTnI (cardiac troponin I) (P19429 2-210): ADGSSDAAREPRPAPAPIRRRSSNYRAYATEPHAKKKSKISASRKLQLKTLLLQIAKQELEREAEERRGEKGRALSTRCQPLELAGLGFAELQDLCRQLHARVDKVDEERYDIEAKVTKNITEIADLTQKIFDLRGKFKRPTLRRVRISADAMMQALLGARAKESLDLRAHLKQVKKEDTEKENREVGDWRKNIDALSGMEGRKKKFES

Sequence of NT-proBNP (P16860 27-102): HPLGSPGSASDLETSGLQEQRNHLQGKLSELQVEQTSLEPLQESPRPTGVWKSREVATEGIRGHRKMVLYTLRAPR

B1: azide-modified NT-proBNP aptamer (N20a in Fig. S3 legend) (ssDNA)
DNA: GGCAGGAAGACAAACAGGTCGTAGTGGAAACTGTCCACCGTAGACCGGTTATCTAGTGGTCTGTGGTGCTGT
modifications: 5'-NH2; 3'-azide (N3), photochemically coupled to graphene
binding result (NT-proBNP): binds
binding result [1]: no binding
